T1: hFceR1 (human, UniProt P12319 26-205)
T1 construct: Non-target panel protein
T1 sequence (alpha): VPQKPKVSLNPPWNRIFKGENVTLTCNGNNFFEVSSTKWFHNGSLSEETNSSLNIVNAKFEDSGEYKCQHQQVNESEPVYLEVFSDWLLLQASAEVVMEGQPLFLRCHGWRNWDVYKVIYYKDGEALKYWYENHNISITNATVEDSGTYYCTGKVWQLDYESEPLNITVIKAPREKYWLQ

T2: mICAM2 (mouse, UniProt P35330 23-222, limits assumed)
T2 construct: Non-target panel protein
T2 sequence (looked up): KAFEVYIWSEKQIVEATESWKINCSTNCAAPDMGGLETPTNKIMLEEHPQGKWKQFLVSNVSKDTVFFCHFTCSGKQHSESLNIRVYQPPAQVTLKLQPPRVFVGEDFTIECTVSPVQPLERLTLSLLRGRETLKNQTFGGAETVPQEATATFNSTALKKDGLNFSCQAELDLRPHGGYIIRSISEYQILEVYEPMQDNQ

T3: hLAMP-1 (human, UniProt P11279 29-382, limits assumed)
T3 construct: Non-target panel protein
T3 sequence (looked up): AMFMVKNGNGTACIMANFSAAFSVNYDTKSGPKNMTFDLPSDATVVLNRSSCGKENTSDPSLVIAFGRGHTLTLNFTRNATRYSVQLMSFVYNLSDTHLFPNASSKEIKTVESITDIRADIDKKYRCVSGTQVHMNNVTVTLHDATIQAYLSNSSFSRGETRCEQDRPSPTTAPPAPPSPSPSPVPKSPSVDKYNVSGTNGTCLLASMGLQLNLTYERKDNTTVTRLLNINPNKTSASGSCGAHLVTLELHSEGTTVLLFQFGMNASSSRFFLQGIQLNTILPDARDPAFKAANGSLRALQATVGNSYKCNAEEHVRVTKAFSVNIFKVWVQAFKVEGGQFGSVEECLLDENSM

T4: mTNFa (mouse, UniProt P06804 80-235)
T4 construct: Non-target panel protein
T4 sequence (looked up): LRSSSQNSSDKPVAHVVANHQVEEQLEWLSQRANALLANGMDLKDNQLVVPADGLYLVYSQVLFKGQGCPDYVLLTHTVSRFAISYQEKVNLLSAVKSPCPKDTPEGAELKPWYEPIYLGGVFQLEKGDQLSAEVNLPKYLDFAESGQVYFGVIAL

T5: hCXCL13 (human, UniProt O43927 23-109)
T5 construct: Non-target panel protein
T5 sequence (looked up): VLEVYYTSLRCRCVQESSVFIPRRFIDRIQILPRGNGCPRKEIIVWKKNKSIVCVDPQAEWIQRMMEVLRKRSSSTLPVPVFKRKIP

T6: Human A33 ectodomain protein (human, UniProt Q99795 22-235)
T6 construct: extracellular domain
T6 sequence (looked up): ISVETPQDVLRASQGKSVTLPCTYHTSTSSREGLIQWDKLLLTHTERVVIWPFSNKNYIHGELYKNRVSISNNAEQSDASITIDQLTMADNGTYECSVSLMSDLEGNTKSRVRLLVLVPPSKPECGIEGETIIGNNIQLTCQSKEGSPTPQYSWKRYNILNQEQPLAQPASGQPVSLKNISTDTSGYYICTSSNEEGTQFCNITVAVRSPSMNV

B1: Par-RAGE IgG (rat anti-RAGE XT-M4 parental v-domains on the human IgG1 backbone) (antibody, V domains shown)
VH: EVQLVESGGGLVQPGRSLKLSCVVSGFTFNNYWMTWIRQTPGKGLEWVASIDNSGDNTYYPDSVKDRFTISRDNAKSTLYLQMNSLRSEDTATYYCTRGGDITTGFDYWGQGVMVTVSS
VL: DIQMTQSPSSMSVSLGDTITITCRASQDVGIYVNWFQQKPGKSPRRMIYRATNLADGVPSRFSGSRSGSIYSLTISSLESEDVADYHCLEFDEHPLTFGSGTKVEIK
notes: Human IgG1 backbone; also called XTM4 RAGE
B2: Chim-A33 IgG (rabbit anti-A33 parental v-domains on the human IgG1 backbone) (antibody, V domains shown)
VH: QEQLMESGGGLVTLGGSLKLSCKASGIDFSHYGISWVRQAPGKGLEWIAYIYPNYGSVDYASWVNGRFTISLDNAQNTVFLQMISLTAADTATYFCARDRGYYSGSRGTRLDLWGQGTLVTISS
VL: ELVMTQTPPSLSASVGETVRIRCLASEFLFNGVSWYQQKPGKPPKFLISGASNLESGVPPRFSGSGSGTDYTLTIGGVQAEDVATYYCLGGYSGSSGLTFGAGTNVEIK
notes: also called Par-A33; A33 Rabbit

How the values were obtained:
mTRKB = biological target: T7, mTRKB (mouse, UniProt P15209 32-429, limits assumed); experiment: Biacore specificity assay: IgG immobilised (about 300 RU), antigen injected at 500 nM
T7 construct: Non-target panel protein
Experimental: (§1) Biacore specificity analyses were performed using the T-200 biosensor, series S CM5 chips, an amine-coupling kit, 10 mM sodium acetate immobilization buffer at pH 5.0, 10× HBS-P running buffer and NaOH for regeneration (GE Healthcare). A predefined ligand (IgG) immobilization program was set up to immobilize approximately 300 Response Units (RU) on the flow cell for each IgG to be tested. For Anti-RAGE and anti-A33, a panel of fully-purified recombinant target and non-target antigens were diluted in HBS-P running buffer to a final concentration of 500 nM. Four groups of antigens were examined, including: cell membrane proteins (mTRKB, hTRKB, mEGFR, hEGFR, hFceR1, hIL-21R, mICAM1, mICAM2, hICAM1, hCD33, hLAMP-1, hLOX-1, and), soluble signaling molecules (mTNFa, hVEGF, hCXCL13) and albumins (BSA, HSA and MSA). These proteins were injected at 50 μl/min for 3 min, followed by a 5 sec pulse of 20 mM NaOH for regeneration of the chip surface. For pTau, a series of pTau-derived phosphorylated and non-phosphorylated peptides were flowed, as in Shih et al.³. All sensorgrams were analyzed using the Biacore T-200 evaluation software.

hTRKB = biological target: T8, hTRKB (human, UniProt Q16620 32-430, limits assumed); experiment: as above
T8 construct: Non-target panel protein
Experimental: as §1

mEGFR = biological target: T9, mEGFR (mouse, UniProt Q01279 25-647, limits assumed); experiment: as above
T9 construct: Non-target panel protein
Experimental: as §1

hEGFR = biological target: T10, hEGFR (human, UniProt P00533 25-645, limits assumed); experiment: as above
T10 construct: Non-target panel protein
Experimental: as §1

hFceR1 = biological target: T1, hFceR1; experiment: as above
Experimental: as §1

hIL-21R = biological target: T11, hIL-21R (human, UniProt Q9HBE5 20-232, limits assumed); experiment: as above
T11 construct: Non-target panel protein
Experimental: as §1

mICAM1 = biological target: T12, mICAM1 (mouse, UniProt P13597 28-485, limits assumed); experiment: as above
T12 construct: Non-target panel protein
Experimental: as §1

mICAM2 = biological target: T2, mICAM2; experiment: as above
Experimental: as §1

hICAM1 = biological target: T13, hICAM1 (human, UniProt P05362 28-480, limits assumed); experiment: as above
T13 construct: Non-target panel protein
Experimental: as §1

hCD33 = biological target: T14, hCD33 (human, UniProt P20138 18-259, limits assumed); experiment: as above
T14 construct: Non-target panel protein
Experimental: as §1

hLAMP-1 = biological target: T3, hLAMP-1; experiment: as above
Experimental: as §1

hLOX-1 = hLOX-1 (human, UniProt P78380 61-273); experiment: as above
Experimental: as §1

mTNFa = biological target: T4, mTNFa; experiment: as above
Experimental: as §1

hVEGF = biological target: T15, hVEGF (human, UniProt P15692-4 27-191, limits assumed); experiment: as above
T15 construct: Non-target panel protein
Experimental: as §1

hCXCL13 = biological target: T5, hCXCL13; experiment: as above
Experimental: as §1

hRAGE = biological target: T16, hRAGE (human, UniProt Q15109 24-344, limits assumed); experiment: Biacore specificity assay: IgG immobilised (about 300 RU), antigen h-RAGE-fc injected at 500 nM
T16 construct: also called human RAGE
Experimental: as §1

mRAGE = biological target: T17, mRAGE (mouse, UniProt Q62151 24-342, limits assumed); experiment: Biacore specificity assay: IgG immobilised (about 300 RU), antigen m-RAGE-fc injected at 500 nM
T17 construct: also called mouse RAGE
Experimental: as §1

[1] = biological target: T6, Human A33 ectodomain protein; experiment: HTRF epitope competition, IgG titrated; competitor parental IgG (Par-A33)
[2] = biological target: T6, Human A33 ectodomain protein; experiment: Biacore T-200 SPR, IgG immobilised (~100 RU), purified target protein injected
Experimental: Biacore analysis was performed using the T-200 biosensor, series S CM5 chips, an amine-coupling kit, 10 mM sodium acetate immobilization buffer at pH 5.0, 10×HBS-P running buffer and NaOH for regeneration (GE Healthcare). Kinetic assay conditions were established to minimize the influence of mass transfer, avidity and rebinding events. A predefined ligand immobilization program was set up to immobilize approximately 100 Response Units (RU) of IgG on the chip. Purified target proteins were diluted in HBS-P running buffer to a range of final concentrations and injected at 50 μl/min for 3 mins. Dissociation was allowed to proceed for 10 min followed by a 5 sec pulse of 20 mM NaOH for regeneration of the chip surface. All sensorgrams were analyzed using the Biacore T-200 evaluation software.

T8 sequence (Q16620 32-430 limits assumed): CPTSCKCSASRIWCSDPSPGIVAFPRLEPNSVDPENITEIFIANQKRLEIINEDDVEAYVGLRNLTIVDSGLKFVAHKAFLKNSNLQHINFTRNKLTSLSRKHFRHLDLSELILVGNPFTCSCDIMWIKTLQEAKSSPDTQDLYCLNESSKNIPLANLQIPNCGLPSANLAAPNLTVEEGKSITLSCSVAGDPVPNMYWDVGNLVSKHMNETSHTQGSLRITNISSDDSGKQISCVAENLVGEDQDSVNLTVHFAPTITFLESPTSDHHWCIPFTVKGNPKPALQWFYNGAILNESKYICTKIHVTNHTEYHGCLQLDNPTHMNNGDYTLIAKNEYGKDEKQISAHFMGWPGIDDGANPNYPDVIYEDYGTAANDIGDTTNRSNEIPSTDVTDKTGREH
T7 sequence (P15209 32-429 limits assumed): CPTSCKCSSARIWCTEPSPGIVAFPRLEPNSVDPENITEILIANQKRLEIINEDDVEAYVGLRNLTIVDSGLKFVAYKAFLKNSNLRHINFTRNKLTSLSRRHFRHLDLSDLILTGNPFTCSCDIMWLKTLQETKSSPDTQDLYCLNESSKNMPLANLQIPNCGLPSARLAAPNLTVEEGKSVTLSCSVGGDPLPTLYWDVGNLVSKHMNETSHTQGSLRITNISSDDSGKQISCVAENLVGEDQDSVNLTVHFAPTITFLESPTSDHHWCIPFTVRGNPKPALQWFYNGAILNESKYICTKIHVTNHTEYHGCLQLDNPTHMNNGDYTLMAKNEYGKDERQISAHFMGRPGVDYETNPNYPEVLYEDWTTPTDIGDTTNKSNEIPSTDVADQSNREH
T11 sequence (Q9HBE5 20-232 limits assumed): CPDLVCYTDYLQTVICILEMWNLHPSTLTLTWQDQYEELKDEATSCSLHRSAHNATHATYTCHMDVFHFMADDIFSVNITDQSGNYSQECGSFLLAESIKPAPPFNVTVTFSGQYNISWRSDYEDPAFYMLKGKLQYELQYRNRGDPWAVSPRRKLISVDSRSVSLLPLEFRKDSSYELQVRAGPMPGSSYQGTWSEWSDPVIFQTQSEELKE
T13 sequence (P05362 28-480 limits assumed): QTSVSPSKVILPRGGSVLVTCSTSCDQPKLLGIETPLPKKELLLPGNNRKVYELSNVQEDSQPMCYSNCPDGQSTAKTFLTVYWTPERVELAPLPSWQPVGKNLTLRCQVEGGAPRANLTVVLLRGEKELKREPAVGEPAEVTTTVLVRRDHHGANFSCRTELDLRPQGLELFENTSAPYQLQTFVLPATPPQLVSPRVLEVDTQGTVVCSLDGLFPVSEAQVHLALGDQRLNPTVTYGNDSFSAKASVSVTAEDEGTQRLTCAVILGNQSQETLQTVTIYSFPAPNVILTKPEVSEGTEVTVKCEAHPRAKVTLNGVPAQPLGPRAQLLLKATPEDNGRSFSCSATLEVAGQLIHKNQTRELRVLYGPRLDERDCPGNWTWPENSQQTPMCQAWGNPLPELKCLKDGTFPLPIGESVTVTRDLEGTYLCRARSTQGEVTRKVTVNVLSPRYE
T12 sequence (P13597 28-485 limits assumed): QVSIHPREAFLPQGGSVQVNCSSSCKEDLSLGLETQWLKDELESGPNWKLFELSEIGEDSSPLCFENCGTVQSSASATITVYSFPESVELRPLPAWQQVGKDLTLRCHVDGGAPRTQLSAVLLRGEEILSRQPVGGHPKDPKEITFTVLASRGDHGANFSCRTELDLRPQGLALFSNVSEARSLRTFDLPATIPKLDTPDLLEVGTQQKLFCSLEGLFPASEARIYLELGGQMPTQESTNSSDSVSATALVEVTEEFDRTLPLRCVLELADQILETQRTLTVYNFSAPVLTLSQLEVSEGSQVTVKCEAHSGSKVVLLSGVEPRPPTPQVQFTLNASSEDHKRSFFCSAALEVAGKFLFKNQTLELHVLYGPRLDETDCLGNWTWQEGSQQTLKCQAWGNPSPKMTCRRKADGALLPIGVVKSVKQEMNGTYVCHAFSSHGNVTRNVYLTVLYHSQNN
T14 sequence (P20138 18-259 limits assumed): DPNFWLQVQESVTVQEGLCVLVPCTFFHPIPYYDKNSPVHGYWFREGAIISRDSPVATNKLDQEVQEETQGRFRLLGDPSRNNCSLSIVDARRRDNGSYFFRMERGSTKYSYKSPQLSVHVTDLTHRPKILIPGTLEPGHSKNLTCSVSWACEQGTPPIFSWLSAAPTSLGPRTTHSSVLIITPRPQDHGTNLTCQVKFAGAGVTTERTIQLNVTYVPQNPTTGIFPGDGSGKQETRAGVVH
T15 sequence (P15692 other isoform, or with tags, fused parts or gaps limits assumed): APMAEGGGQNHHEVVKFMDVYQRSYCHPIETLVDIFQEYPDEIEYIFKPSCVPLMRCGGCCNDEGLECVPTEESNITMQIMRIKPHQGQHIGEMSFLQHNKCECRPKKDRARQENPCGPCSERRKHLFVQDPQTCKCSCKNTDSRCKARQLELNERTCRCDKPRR
T16 sequence (Q15109 24-344 limits assumed): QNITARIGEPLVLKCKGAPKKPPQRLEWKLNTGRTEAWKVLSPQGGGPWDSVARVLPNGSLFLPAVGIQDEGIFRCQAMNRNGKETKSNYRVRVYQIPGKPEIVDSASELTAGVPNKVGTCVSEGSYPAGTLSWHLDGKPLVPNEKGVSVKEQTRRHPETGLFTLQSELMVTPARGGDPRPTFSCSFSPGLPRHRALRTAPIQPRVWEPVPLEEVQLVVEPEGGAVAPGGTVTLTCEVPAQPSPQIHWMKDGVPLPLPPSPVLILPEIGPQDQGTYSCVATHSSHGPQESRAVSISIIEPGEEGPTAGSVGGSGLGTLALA
T17 sequence (Q62151 24-342 limits assumed): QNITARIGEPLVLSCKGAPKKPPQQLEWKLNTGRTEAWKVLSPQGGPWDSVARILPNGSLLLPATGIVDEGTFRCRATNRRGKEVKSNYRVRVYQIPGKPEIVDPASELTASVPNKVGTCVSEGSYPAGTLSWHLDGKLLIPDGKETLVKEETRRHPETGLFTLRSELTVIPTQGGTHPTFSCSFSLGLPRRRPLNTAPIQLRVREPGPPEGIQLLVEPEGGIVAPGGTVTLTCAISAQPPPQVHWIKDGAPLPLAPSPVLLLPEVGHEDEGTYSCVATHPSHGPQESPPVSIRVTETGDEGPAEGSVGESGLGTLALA

Row | Binder | binding result (mTRKB) | binding result (hTRKB) | binding result (mEGFR) | binding result (hEGFR) | binding result (hFceR1) | binding result (hIL-21R) | binding result (mICAM1) | binding result (mICAM2) | binding result (hICAM1) | binding result (hCD33) | binding result (hLAMP-1) | binding result (hLOX-1) | binding result (mTNFa) | binding result (hVEGF) | binding result (hCXCL13) | binding result (hRAGE) | binding result (mRAGE) | IC50 [1] [nM] | Kd [2] [nM]
1 | B1 | no binding (tested: 500 nM) | no binding (tested: 500 nM) | no binding (tested: 500 nM) | no binding (tested: 500 nM) | no binding (tested: 500 nM) | no binding (tested: 500 nM) | no binding (tested: 500 nM) | no binding (tested: 500 nM) | no binding (tested: 500 nM) | no binding (tested: 500 nM) | no binding (tested: 500 nM) | no binding (tested: 500 nM) | no binding (tested: 500 nM) | no binding (tested: 500 nM) | no binding (tested: 500 nM) | binds | binds |  | 
2 | B2 | no binding (tested: 500 nM) | no binding (tested: 500 nM) | no binding (tested: 500 nM) | no binding (tested: 500 nM) | no binding (tested: 500 nM) | no binding (tested: 500 nM) | no binding (tested: 500 nM) | no binding (tested: 500 nM) | no binding (tested: 500 nM) | no binding (tested: 500 nM) | no binding (tested: 500 nM) | no binding (tested: 500 nM) | no binding (tested: 500 nM) | no binding (tested: 500 nM) | no binding (tested: 500 nM) |  |  | 2.9 | 2.1

Reference: patent publication US20170073395A1 (Pfizer, published 2017)
